# Experiment: soluble on expression in E. coli; label from the status in PepcDB or PDB records
row,Sequence,soluble on expression in E. coli
1,MRAIYATDLSAASEAAIQNETCLECLGRIGVDTIHLVTVIPSNVHAGMPGMNFSKRREQGLTRYQNVMEDAGFDTETHVVRGTPHRRINGIAEAEKADVTIIGSRGQSPLNNRVIGSTARNLARTTVVPLLVNRIERSTDEPDVLREHLFQRVLYATDFSENATRAFDAFQYLRHATQEATLVHVESPKDATSEADPAEQLASLADTLSQWDIETNVEVRRGDPAEEILDVEAAVTPTTTLVGSRGQSRMRRLLLGSVSEDIIAQATGNVYLVPPPRTA,not soluble
2,GSHMFMPSDRSTERCETVLEGETISCFVVGGEKRLCLPQILNSVLRDFSLQQINAVCDELHIYCSRCTADQLEILKVMGILPFSAPSCGLITKTDAERLCNALLYG,soluble
3,MGSDKIHHHHHHMQTFHELEQTQSVIATILRNSLQTNRINHAYIFTGDYEPLLLEAAQLFAKSLFCERRDQIEPCQTCRSCRRMDSGNLVDYYQIEPDGATIKKEQIQELMHDLSLRGLEGDRQIYVVTQSHKMTPQAANSLLKFFEEPGAGKVAILITNQPQLLLPTIRSRGQLLSFRPADRLLIGQVLSEKTGRDNELTQLAARVYPKIEDAEQALVEDWFVNARVSVLQLMEELANRPADLPLFVQEKWMSQFKNRQDARIGLELVTCFFEDVLHLKLNPSWETITYANSRPLLEQMGGKSQTTITRWLQAVLAAVKRIEANVNPQLTVERLMFDLQKG,not soluble
4,MSLSVLNGYQLIISDVDGVIVREGDPIWENIQALRNIQNNGVKIIFVTNNSGFSRILLSRQLSYLGLKVTPDMIITSGLAAAIYMKEKLNVKSVFAVGEEGLIEELKNHGFLVFSSAESERILPDAVVMGLDRLSTYDKLSLAMRCISKGSKFIVTNMDRLWPAKDGLKLGAGALASSIIYALRRDPDFIAGKPNTWIVEIAMRISNVKKLDKILVIGDQIETDIQMGYNIGADTALVLTGISNVDDVDRSNVKPKYVVNTLLDLLEGHHHHHH,soluble
5,MGSDKIHHHHHHMSANTQSMIFTVYGDYIRHYGNQIWVGSLIRLLKEFGHNEQAVRVAVSRMVKQGWLTSQKQGTKSFYSLTPRGVERMEEAARRIYKSTPHVWDGKWRTLMYTIPEDKRQIRDELRKELSWSGFGNLSNGVWISPNPLEKEAERLIEAYDIKAYIDFFVGEYHGPQQDQSLVERAFPLDELQERYEQFIAEYSRRYIVHQSRIQLGEMDEEQCFVERTTLVHEYRKFLFTDPGLPQELLPDEWSGHHAALLFEQYYRLLAEPASRFFESIFRETHDVTQKSADYDASEHPLFAER,not soluble
6,MAHHHHHHMPLFCSSTTFMLKVRRAAVKTWKCFAFIAFVSSSMRYISCGFTADDNTKSKSCPFDALGISNNSDMTTVKAAYRSKCQTEHPDVGGTEEGFRRIRWAYESCCEKLVKTGPRSNSEFDGSSHESSSKQKDDEGDYTHSYYRYKSKDERYHEQRQMFYYLFSSVETRNDIDNLLSKALRSHCFDAIDVSEPLRLSLRNYHRVTGYGEHHLTSCFAAMEHWEEYTQRRADVTQYHIMLILYTDGPKPGLTAQLISEGVEAIMEQMCVKGIEYDDWSLTLAHKAYRVCPYPST,not soluble
7,MSLTKIKNIKTKVYQWNGKTVPPKNNFCTNASDILYEKSDAMGSFRFHEWLICEIETDDGVFGIGNAALAPQIVKKTIDTYLKPLVVGEDPFDYAYIWEKMYRRTHAWGRRGIGMIAMSAIDIGIWDILGKITNKPVFKLLGGRTKEKIPVYASKLYSQPLNELQKEAETYKNQGFKMYKMSFGWGPKDGPEGMKKNIDLVEAVREVIGDDSDLMLESYMGWNLDYSKRIIPKLIKFNPRWLEEPVIADDIAGYSELNKMGVIPISGGEHEFNLFGFKQLLDLKAVSYIQYDTNRVGGITAAQKINALAESFQVPVVPHAGQMHNYHLTMANFNCPISEYFPVHDVEVGNELFYYIFEGDPEPKNGNINLDDNIPGLGLKISDKYKSDFNIIDEGHHHHHH,soluble
8,MGSDKIHHHHHHMRKISIVIPVYNTEKYLKLSVDSVLSQSYQDWELILVDDGSKDGSGAICDKYASEDSRIKVYHTVNQGVTAARGYGVEQSTGEWICFLDADDTLADDALQVMLGKSADCDIVIGNKRIVSGNDVTEEWMNQDDRQLQAVEFLDGLIRNKISQYITGRIFRRILFDNGTICIPRELIMAEDFIMNVQLGNKAKKIAVIRDMVYGYHVYGESVSHTFRTNLEYESRFCDCLFSALKTGGYYEEVKEAFTFQKVRALKSAFMAQQGRVNLRHPFLQEVRKEAKSIGLSRGWKLFLYLLPLKYIGYIFFRSLNK,not soluble
9,MSLATPDRLTIVNQYVDNVLTKAGDHYHGQSPTPLLADGVDPRTGKQMEWIFPDGRHAVLSNFSAQQNLMRVLVGLSNLSGNPSYKQRAEAIVKYHFQHYQDESGLLIWGGHRFVDLKTLQPEGPSEKEMVHELKNAYPYYDLMFSVDKDATARFIRGFWNAHVYDWKIMETSRHGKYGQKIGALWQSPFEQQPPFFATKGLSFLNAGNDLIYSASLLYKYNKEDGALVWAKRLAQQYVLPRDKATGLGVYQFTQALKRDETTDDADTHSKYGDRAQRQFGPEFGPTALEGNMMLKGRTSTIYSENALMQLQLGKDLGAEGKELLTWTTDGLKAFAKYAYNESDNTFRPMLANGKDLSNYVLPRDGYYGKKGTVIKPYPADNSFLLSYARAYTVLPDAELWRVARGIARAQGLGELGSAPGKDVKVDLATKNNDPYALFALLDLYQASKVKDYLSLAEKVGDNIISTRYQNGFFMAEPNRQYADVDTIEPYALLALEAAVRNQPQSVAPFLNGAGFTEGGYRMEDGSTRVSTRDNEIFLLNVGETLKPNNKKEGHHHHHH,soluble
10,PSFSFGGITPVSLQRSSMELISVQAVKHPKLLLYLSERGLQPSDASPFLSEVYYKVSRKCFFALGFPNDAGGWELRNPYFKGCFAPKAITTIKGTDSHKLLLFEGFMDFLSWRKLHPEGQAESIILNSLTLLPKLMPTLHPYPMIESLLDNDEAGDRATKQLIDAGLPVKDMRACYAPYKDINEYLTLAEQRKKILTPHKRGLRR,not soluble
11,MAKVSVVMPVYNSEKYLKESIESILNQSYSDLEFIIINDGSTDNSFKIIKEYAKLDKRINVISRENKGIVYSLNEAIRLAKGEYIARMDADDISAPKRIEKQISFLKSHRDIDILGTQVKVVGNISNDIKEKNENKLNIEFDIYDDNREKILNYWYCLAHPSVMFRKDILRELKGYNDFKSEDLDLWLRAIESGFKIYKLKEELIYFRMHEESKTRVDNQNYEGLKDGIKIKLIDVFKREFKKDFKYIVWGASNGGKITKEVLDEFFEKSQCIAFVDKFKTGEFEKIRILHPKDINHIKFDYVFIATEPGKEEAMSSLKSMGLKCIKDFLSTVLEHHHHHH,not soluble
12,MGSDKIHHHHHHMTRYQHLAGLLEQRIEQGLYQSGERLPSVRALSTEHGVSISTVQQAYHLLETRQLIMPQPRSGYFVTPRKATPPVPALTRPAQRPVEITQWESVLELVNVRLETNVLKFGSGMPDVSQPTIKPLWKEMSRLCQYQDPRVLQYDSVYGVPALREQIARLTVDCGCQLNQDDIVITTGCQEALFVAVRAVCQPGDIVAVESPAFPGTMQILRGLDIKAIEIPTDSVTGISLEALRLALDQWPVKAVLLVPSCNNPLGFIMPDARKKSLVTLAQHFDIAIIEDDAYGELAYEYPRPRAIKSFDEDGRVLLCSSFSKNLAPGLRVGWIAPGRYLERVIHTKYISTGSTVVQPQLAVAEFIRRGHYQPHLRRMRAQYKANLDIFTCWVREYFPSNICVSRPQGGFLVWIELPEYFDSLKLAREVRKAGIQIAAGSLFSASGKYRNCIRLNYANRFTEEMREGLRIVGSEVAKMMHTLPDQSAP,not soluble
13,MQDIHFRRHYVRHLPKEVSQNDIIKALASPLINDGMVVSDFADHVITREQNFPTGLPVEPVGVAIPHTDHKYVRQNAISVGILAEPVNFEDMGGEPDPVPVRVVFMLALGESNKQLNVLGWIMDVIQDEDFMQQLLVMNDDEIYQSIYTRISERGEV,soluble
14,MGSDKIHHHHHHMHISLGPLLYCWQKQQVTDFYQQVAASQIPLVYLGEAVCSRRREFKWGDYLELAQMLKQAGKEVVISTLALIEAPSEYTELKRQVDNGEFMVEANDMAAVYLANEHKLPFVCGASINNYNRASLDILQRFGMQRFVMPVELSKAWLSQVIQQKPSFEVEVLGHGYLPLAHSARCFTARHKQLTKDHCETVCREYSKGLVAQTQEQQPLLRLNGIQTQSASCLDLRSEITTMAKMGVDVFRVSPSSLDCIATANALVDAINTPENAQHFAISSDANLERTQCNGYWFGEAGLAVHANP,not soluble
15,MSLNSSFFKMMEKRSYNRFNQEQKAAITYDMKKHLRIIAGAGSGKTQTICAKAVYLMTQKQVDEERILMITFTRNAANELKKRVDNFSQRKTAVHIGTFHSIFFRIYNEICRKFPEVAMQGIQGDFSKDTAQKVNAVLQQLIRKYNLYIFDQYGEKTIASRLDYWQNMNLSVEEMVQLVKEKYDSIDKNARQPISERLYGLLTELQEQKRSQQLLEFNDVLQNLKSALENEEIQHYIGQKYDYLFIDEFQDTNPLQWEIVKRMTKENRIKLIVVGDDDQSIYGFRGSEPAYIKNFEKEYPTKTLFLLTNYRSRAAIVQGANRLISYNKNDRIPKAMIPAQKEAGVMEAYLFSDTKAESQWLIKQIQTFIQKNGKYKESIILYRSASQTQQLVQSLLKTNIPFVLEADSPYEGIFGIKSFQHFYQKIVHWQTALNLQKKNQAYQQLLRQLMADCYLKKSECDQYFSPKYQNIAVADYILSISPNLKSKSAEIREFEEALRKTDQHQEIYSLVQSYLHLPRIAKEIDQSDQEWIREEVKQHATFRRLQALSQETQATAKELKTRLIAYRQGKLDALCIQSIHKSKGLSYRNVFLIGCNEGSLPYNGATEKKVIDFNEIKAEPVTTIEEERRLFYVAMTRARNRLYLCVPQMKNSRKLKVSRFIKETGSRVKKGEGHHHHHH,soluble
16,KQAQVDYLALPGDAKLDTRSVDYKCENGRKFTVQYLNKGDNSLAVVPVSDNSTLVFSNVISASGAKYAAGQYIWWTKGEEATLYGDWKGGEPTDGVACKER,soluble
17,MGSDKIHHHHHHMILTVTASPYLLSTNELDGTIEIGEANKIRQVSTVAGGFGTGVAATLFYGGNETFAVFPAPEISHYMRLVTFAGLPHEIIPVAGPIPMHLTMRDAEGNETKFKDSPMPLDVSQLAILRDLVVRRAEDAAWVLLGGNLPSIAPAAWFVDVVRSLRLYHPHVKVAIAATGAALRAVIRQLAATSPDALIVAAEEIEIATGLEPKTLRGPWVEGDLSPTVAAARALIDSGVTEVLVTNKRTESLYVSESESLLASYDSTPGKQGVNWRESFTAGFLAASNDGKSTEDSVINAVAYANAEGSEWDNYIPTPDKLRAEHVVIKSL,not soluble
18,MGSDKIHHHHHHMGKGTNPTIGIALGSGAAKGWAHIGVLNGLAAMGIKPDKVAGCSVGALVGAAYAHNHLAELEEWVRSFSSWDVLGLMDIRWRKGGLIGGEKVFDVLQSRIGDVNIEDLEYPFAAIATDLYSGQEIWFRHGDLRQAVRASCSMPGILAPVRQGERWLVDGAVVNPVPVSVSRAMGVDIVIAVDLHGFHSGRLQVLPVNMTSHRATKEDTEMPARQETGFMDLFARGREYVSNLTDKFSLGTKSNPGMIAVMSQSMGILEQRHKRARLMGDPPDICIVPEVANIGTMEFHRADEAIAAGEAAVAKVAHLIEAAIWKD,not soluble

# From the DeepSol protein solubility set
